From the DeepSol protein solubility set

test: soluble on expression in E. coli; label from the status in PepcDB or PDB records

Sequence | soluble on expression in E. coli
MSLYENNVKDTKDFYNDIGHISWSVAPSQHYHVGIFELEKDSMEDAQNRTVEYMARKVAASDLDVLLDIGCGSGLTAVQISKKENCKIVGINISEKQLAIGKKLISKEKINSRVKLMNMDAHQLNFKSGMFDGAYALESIMHMNREKVLSEVHRVLKNGAPFSLCDWYVKKSLTPVEKRFLETITLGKYITKEQYFSLYQTQNFMDIEIEEWSNKILPTYKYWTTITDEMKEKLPDHLLYVIEENSKVLSDIAIEKLGYLQVNGIKREGHHHHHH | soluble
MSLYSENDISNSIKNGILYLEDPVNHEWYPHYFVLTSSKIYYSEETSSDQGNEDEEEPKEVSSSTELHSNEKWFHGKLGAGRDGRHIAERLLTEYCIETGAPDGSFLVRESETFVGDYTLSFWRNGKVQHCRIHSRQDAGTPKFFLTDNLVFDSLYDLITHYQQVPLRCNEFEMRLSEPVPQTNAHESKEWYHASLTRAQAEHMLMRVPRDGAFLVRKRNEPNSYAISFRAEGKIKHCRVQQEGQTVMLGNSEFDSLVDLISYYEKHPLYRKMKLRYPINEEALEKIGTAEPDYGALYEGRNPGFYVEANPMPTFKCAVKALFDYKAQREDELTFIKSAIIQNVEKQEGGWWRGDYGGKKQLWFPSNYVEEMVNEGHHHHHH | soluble
MSMPETKTRSVALTPPLHTPRLLLLPLQLEDAPAMQSLFNHWEVVRYLTHHVPWPYPEGEALRYLREDALPAMQDGEEWHWSIRLRSQQDRLIGSACMMDEQDNNRGFWLSPAYQGLGLMSEVCVAIDRFWFETLKRPVLRVAKCALNEASCRLSQREGMRLVTVQESQFVCGTTQEQLWELTRDEWRANNGG | not soluble
MSMPRYYEYRHVVGFEETNLVGNVYYVNYLRWQGRCREMFLYEHAPEILDELRADLKLFTLKAECEFFAELAPFDRLAVRMRLVELTQTQMELGFDYLRLGGDDLLVARGRQRIACMRGPNGRTEPVRVPAGLVRAFAPFRSATVGQ | soluble
MSMSQSRAVQRSSSPNEDRGENQLVVYDLKGNDDTEEEVLPVQSQPLSSRTQCPSIGAFTVQCASCFKWRLMPSMQKYEEIREQLLENPFFCDTAREWKPDISCDVPADIYQDGTRLWAIDKPNISRPPAGWQRLLRIRGEGGTRFADVYYVAPSGKKLRSTVEVQKYLNDNSEYIGEGVKLSQFSFQIPKPLQDDYVRKRPARLLDSIDNTNTPVAKEANPLAWISPDDHISLQLGTPTESGLNNSHYQPSKKKKTSTLSIFGSNDELADR | soluble
MSMYTTAQLLAANEKKFKFDPLFLRLFFRESYPFTTEKVYLSQIPGLVNMALYVSPIVSGEVIRSRGGSTSEFTPGYVKPKHEVNPQMTLRRLPDEDPQNLADPAYRRRRIIMQNMRDEELAIAQVEEMQAVSAVLKGKYTMTGEAFDPVEVDMGRSAANNITQSGGTEWSKRDKSTYDPTDDIEAYALNASGVVNIIVFDPKGWALFRSFKAVKEKLDTRRGSNSELETAVKDLGEAVSYKGMYGDTAIVVYSGQYVENDVKKNFLPDNTMVLGNTQARGLRTYGCIQDADAQREGINASARYPKNWVTTGDPAREFTMIQSAPLMLLADPDAFVSVQLA | not soluble
MSNDQIWDLLGHQIQIELDTGDVRRQESTTGHLMTRDPVSQSLLIAKIEENSTSIKSIEWIPSCSVKSIRKLKNTENPEIHVAIEKYFENDGIEGGSSGAEDSEEDIKKRAHRVVNYLKSHHLDVVEKPNGTYIIAGTVRFERPYHNANLYCDIPIVLKRILKLVEEI | not soluble
MSNKNKSYDYVIIGGGSAGSVLGNRLSEDKDKEVLVLEAGRSDYFWDLFIQMPAALMFPSGNKFYDWIYSTDEEPHMGGRKVAHARGKVLGGSSSINGMIYQRGNPMDYEGWAEPEGMETWDFAHCLPYFKKLEKTYGAAPYDKFRGHDGPIKLKRGPATNPLFQSFFDAGVEAGYHKTPDVNGFRQEGFGPFDSQVHRGRRMSASRAYLHPAMKRKNLTVETRAFVTEIHYEGRRATGVTYKKNGKLHTIDANEVILSGGAFNTPQLLQLSGIGDSEFLKSKGIEPRVHLPGVGENFEDHLEVYIQHKCKEPVSLQPSLDIKRMPFIGLQWIFTRTGAAASNHFEGGGFVRSNNEVDYPNLMFHFLPIAVRYDGQKAAVAHGYQVHVGPMYSNSRGSLKIKSKDPFEKPSIRFNYLSTEEDKKEWVEAIRVARNILSQKAMDPFNGGEISPGPEVQTDEEILDWVRRDGETALHPSCSAKMGPASDPMAVVDPLTMKVHGMENLRVVDASAMPRTTNGNIHAPVLMLAEKAADIIRGRKPLEPQYIDYYKHGVHDENEGAIEVKPYAK | not soluble
MSNNIVPSSVLPAGENLLTVPDYAERIGQPVTRVFDQIGEHKLICVLDNGIKKIPEAFLSEKGTTNKFVPGVIALLSDGGYTDQEIFKFLFTEDESLPGRPIDAIHGHLAREVMRRAQAMGF | soluble
MSNNNLSVISLVSIGEHPTSRRPRRAEQDARAIELGLKLVGDNLQTLHAGELSDDASQQTALRSYLGMGLAEINLLEMPENADAVLVIAEYLKQQKIDIILTGVCAESGESSGMLPYLLAEQLGMAMVTSIAEILSIDEVNKQAEVLQALPRGQRRKLKVDLPFIASVDMAAALPRQSAFGPAMRGQFEATLGANFTDEESSTWQTADAKKRPKRLKIIKAKTAADRFKAATAKASGGGGKVVHGVEESAQAILDLLIEEGLV | not soluble
MSNSVTNFEMSSVLPGKKPCQGKNNESQVVQTTPIKKHSVTFKNQSSLGVIDHYARLTNKSHSSVIAEVVDLAIPILEKCNRHNWSINEIKNDLLKFSIKESINRSRGKTEVTLEEYCSLIWKTNIMSPLKIPIADYFQLNANDEFMGKDEKTVIRERLSSLRENYDMEKAIYIYNQRHFDVKHQSVSGYSNIILIHRTTFEGYYFDAGQALLLSTSQLIIFGINEVLRRKGIVMPYPVVCWIDIYHVNEMVVMLPVLRKTDVSNRVNVPDDIIINPYSQESRT | soluble
MSNTKNTSDSQESQQSSRKPQRSQATQTSQASQKSQSSQEPRRPKPMEVLREARAQLAELTGMTAESVSSFEQTEEGWVLEVEVLELERVPDTMSLMASYQVELDAEGQLTGYRRARRYERGRADSRGGRKLAAALEHHHHHH | soluble
MSNYVIQADQQLLDALRAHYEGALSDRLPAGALFAVKRPDVVITAYRSGKVLFQGKAAEQEAAKWISGASASNETADHQPSALAAHQLGSLSAIGSDEVGTGDYFGPIVVAAAYVDRPHIAKIAALGVKDSKQLNDEAIKRIAPAIMETVPHAVTVLDNPQYNRWQRSGMPQTKMKALLHNRTLVKLVDAIAPAEPEAIIIDEFLKRDSYFRYLSDEDRIIRERVHCLPKAESVHVSVAAASIIARYVFLEEMEQLSRAVGLLLPKGAGAIVDEAAARIIRARGEEMLETCAKLHFANTKKALAIAKRRK | soluble
MSPDEDLRLLYLRLIPQLAENRPEFQQAIADSPLFTAYMKLLKRQAELSPRILSALLSAISSIVRSHLPAYLKFQAKNGLTATEKLIQSTKDHKNAVKAGRMIVSFLYTLTDLQGIDEITEEIKNSILKIYTLLDGRSRFVDRADDSEETKEFYEETMKMIKFEIMQMHPDIITPQTRKLLEEHFKESNLRAGLMPIGGWPVIPKNEWPQPPQPPCHKANKNAEPKKEPEPAKKVAPKQETKVDQEAAELARKIQIEEDKTRKRHEIVARFSILDIYTKEELAEKLKLDAEMEMAEAQKVLKEIR | not soluble
MSPIDEFTYIKQNKIVYDSNSLIQLYFPIMGSDAMALYDYFVHFFDDGIRRHKFSEVLNHLQYGMPRFQDALVMLTALDLLTVYQATGTYLVKLNQAMSNELFLSNPIYRRLLEKRIGEVAVAELDMKIPKNARDISKKFTDVFSDLGQPKQEVNRSKNVFDLESFKRLMMRDGLRFNNEKDDVLGIYSVSELYHLNWYDTYQLAKQTAINGMIAPQRMKVQQNEGQHIKDNQSFTNNEKVILRESKNDSALVFLEKIKRSRKAVTTSGEKTLLEDLAKMNFLDEVINVMVLYTLNKTKSANLNKAYIMKVANDFAFQNVMTAEDAVLKIRDFSDQKVRTKTETKKKQSNVPEWSNPDYKDEVSPEKEIELEQFKTDALKRLERLGKDGES | not soluble
MSPKSVVITGANRGIGLGLVQEFVKDKNIRHIIATARDVEKATDLKAISDPRVTALQLEVTCDKSMDTFVSKVEEIVGSDGLNLLVNNAGNAVDYPCKAKPNRALFAEQLNVNTTSVVILTQKLMPLLIKASSKVSGDQLSASRAAVVTISSGLASMTDFATGGHAPNAFAYRISKAAINMFGRALANDMKDDHILVASIGPGWVKTDMGGEKALLTVEQSTAELVASFNKLNNSHNGGFFQKDLTPYPF | not soluble
MSPQYDAIIVGGGHNGLTCGAYLARAGVKVLVVERQPMVGGAAVTGEIAPGYRSSLASYYQGLLQPKVILDLELQKYGFEVIPAAPTVFALEGGRTFTLWDDPEKFAAEIAKFSNVDGAAYAGYRAHMLKIAPHMKQLLWEVPVDPASGKIRDLKRLAGFVWRFRKVGPQFYDIYNLLTMSAWDYLSRWFTSDEVKLVLGFFAGGGGANSSLKTPGSAYMLARGIVRDGGTAAGPAGFMKGGMGAISEAIRRSGEAHGMEVRTACPVERILVENGRAVGVRLEGGEEIRSKIVIANATARTTFTKLLDPAELPEEFNRDIRNIRCESTVFRVNLALSALPEAPVFGQTNPQGSIVPQMTVAPNVAYMERAWHQAQGGEIAEAPFLIVKVPSMVDPTLAPEGHHIMNVFGGHAPYTLARGDWDSRREELWGRVLAVLKTQFPDIESRILHRQIMTPLDLERIFDLPNGHVHHGEISADQMFFRRPSPQFADYRSPVDRLYQASASVHPGGGVTGVPGHNAAKVILEDRRKWSLEHHHHHH | soluble
MSPRDVLDSIFAFPPNRDTLGGTSYLIVGNEGNILIDCPALDQTNLNFLRSHGGVRWLFLTHRGAIGRTAEIQQNYGCDILIQEQEAYLLPGLTVTTFTQEFAVTPTAKAIWTPGHSPGSSCLYYNHQGGVLFSGRHLLPNQKGEPVPLRTAKTFHWPRQIKSLQTILETLTPETLQYICPGANTGFLRGKRSIDTAYQRLASLDLKALLQTQPLILEHHHHHH | soluble
MSPRRSAAEAQATRGRILGRAAEIASEEGLDGITIGRLAEELEMSKSGVHKHFGTKETLQISTLDKAFVDFWHRVVEPALAEPPGLRRLRAVCANSVGYLEEPLLPGGCLLTAALSEYDGRPGRVRDAVAEVWSRWREQLRADLTAAVDKGELPAGFDVEQALFEIVAAGLALNAAMQLQHDRTAADRARRAIERALAQS | soluble
MSPVEESPEEFLARFAAHRVEVRLYPEPWGSPLLEVQTPAGFVYAMDRGAPPAPVGEARVLFHGLARKVARAQGKEGVFREGAAYRLVGTARPLEKGFYLLLARGLPVVVHWEGPMPEEAEVLLWPPLMLFRE | soluble
MSQDNSEELIKVEKVEAFFYPIHGIPTMVLYLEDGREFKMFQIPPEIVIALNRLQEKRDYEELLRGDKRENIYDVLAFSSEIKDQLSKIINRVIINDVNEEYGVYIATVEFKFDGVIIEKQLIPSHAVFLAIVSNRPIYVKKNLVDEQEKQERKSGEDV | soluble
MSQKEQIKTYKGPAGGWGALKAVTRSWWGSENAVKNIRTMLKTNQNGGFDCPGCAWGESPDSGKVNFCENGAKAVNWEATNRLVDPEFFANHSVSSLSTQTDYWLEYQG | not soluble
MSQPVAFVTGCSSGIGRALADAFQRAGYRVWASARKEDDVRALAEAGFQAVQLDVNDAAALARLAEELGVEAAGLDVLVNNAGYGAMGPLLDGGVEAMRRQFETNVFAVVGVTRALFPLLRRKSGLVVNVGSVSGVLVTPFAGAYCASKAAVHALSDALRLELAPFGVEVLEVQPGAIASNFGASASREMDSVVDERSPWWPLRRQIQARAAASQDNPTSAEDFARQLLAAVQRRPRPPLVRIGNGSRALPALARWLPRGLLERLLKKRFGLDTRL | not soluble
